Results published in US20220119534A1 (DRAGONFLY THERAPEUTICS, published 2022).

T1: human CLEC12A on cells (HL60, PL21, Ba/F3-hCLEC12A) (human, UniProt Q5QGZ9 1-265)
T1 construct: Endogenous on the AML lines HL60 and PL21; brought into mouse Ba/F3 cells by retroviral transduction; The cell line stands under assay; also called CLL-1
T1 sequence: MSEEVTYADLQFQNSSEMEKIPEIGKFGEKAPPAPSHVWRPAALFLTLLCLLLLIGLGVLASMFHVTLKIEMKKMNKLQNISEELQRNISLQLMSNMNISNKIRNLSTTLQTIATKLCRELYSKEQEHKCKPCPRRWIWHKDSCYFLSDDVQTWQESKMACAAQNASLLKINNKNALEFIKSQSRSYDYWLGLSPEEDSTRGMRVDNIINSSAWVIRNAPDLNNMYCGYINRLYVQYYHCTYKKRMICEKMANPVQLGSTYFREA

T2: recombinant human CLEC12A-His (human, UniProt Q5QGZ9 65-265)
T2 construct: also called hCLEC12A-His; hCLEC12A
T2 sequence: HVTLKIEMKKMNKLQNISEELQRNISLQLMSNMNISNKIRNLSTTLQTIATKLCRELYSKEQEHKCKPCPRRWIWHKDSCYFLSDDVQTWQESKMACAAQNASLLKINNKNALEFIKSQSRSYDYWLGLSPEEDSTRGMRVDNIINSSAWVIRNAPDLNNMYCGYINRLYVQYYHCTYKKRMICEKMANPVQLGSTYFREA


Legend:
[1] = biological target: T1, human CLEC12A on cells (HL60, PL21, …); assay: flow cytometry, PL21 cells
Protocol: (§1) 100,000 cells were seeded per well into a 96-well plate for FACS staining. Cells were washed with PBS. Cells were incubated in a 1:2000 dilution of live/dead dye in PBS for 15 minutes, then washed with FACS buffer. TriNKETs or mAbs were diluted into FACS buffer, and 50 μl containing diluted TriNKET or mAb was added to cells. Cells were incubated on ice for 20 minutes. After the incubation, cells were washed with FACS buffer. Anti-human IgG-Fc secondary antibody was diluted into FACS buffer, and 50 μl was added per well for detection of the bound TriNKETs or mAbs. Cells were incubated for 20 minutes on ice, then washed with FACS buffer. 50 μl of fixation buffer was added to each well, and cells were incubated for 10 minutes at room temperature. Cells were washed with FACS buffer and resuspended in FACS buffer for analysis with BD FACS Celesta SN #H66034400085, or BD FACS Celesta SN #H66034400160. Cells of interest were identified using FSC vs. SSC plot, and an appropriately shaped gate was drawn around the cells. Within the gated cells, doublet cells were removed by viewing FSC-H vs FSC-A plot. Within the single cell population, live cells were gated. Within the live gate, the mean fluorescence intensity (MFI) of each sample and the secondary-only control was calculated. Fold-over-background (FOB) was calculated as the ratio of test article MFI over secondary-only background MFI. Data were fit to a four-parameter non-linear regression curve using GraphPad Prism 7.0.

[2] = biological target: T1, human CLEC12A on cells (HL60, PL21, …); assay: flow cytometry, HL60 cells
Protocol: as §1

[3] = biological target: T1, human CLEC12A on cells (HL60, PL21, …); assay: flow cytometry, Ba/F3-hCLEC12A cells
Protocol: as §1

[4] = biological target: T2, recombinant human CLEC12A-His; assay: SPR screening, semi-purified

Row | Binder | EC50 [1] [nM] | FOB (fold over background) [1] [fold] | EC50 [2] [nM] | FOB (fold over background) [2] [fold] | EC50 [3] [nM] | FOB (fold over background) [3] [fold] | Kd [4] [nM] | koff [4] [s⁻¹] | kon [4] [M⁻¹ s⁻¹]
1 | AB0300 (other, name in EU numbering, Positions are EU numbers, not positions counted on the entries; also called AB0237si) QLQLQESGPGLVKPSETLSLTCTVSGFSLTNYGLHWIRQPPGKCLEWIGVIWSGGKTDYNPSLKSRVTISKDTSKNQFSLKLSSVQAADTAVYYCAKYDYDDSLDYWGQGTLVTVSSGGGGSGGGGSGGGGSGGGGSDIQMTQSPSSLSASVGDRVTITCHASQNINFWLSWYQQKPGKAPKLLIYEASNLHTGVPSRFSGSGSGTRFTLTISSLQPEDIATYYCQQSHSYPLTFGCGTKLEIKGSDKTHTCPPCPAPEAAGGPSVFLFPPKPKDTLMISRTPEVTCVVVDVSHEDPEVKFNWYVDGVEVHNAKTKPREEQYNSTYRVVSVLTVLHQDWLNGKEYKCKVSNKALGAPIEKTISKAKGQPREPRVYTLPPCRDELTKNQVSLTCLVKGFYPSDIAVEWESNGQPENNYKTTPPVLVSDGSFTLYSKLTVDKSRWQQGNVFSCSVMHEALHNHYTQKSLSLSPG heavy: EVQLVESGGGLVKPGGSLRLSCAASGFTFSSYSMNWVRQAPGKGLEWVSSISSSSSYIYYADSVKGRFTISRDNAKNSLYLQMNSLRAEDTAVYYCARGAPIGAAAGWFDPWGQGTLVTVSSASTKGPSVFPLAPSSKSTSGGTAALGCLVKDYFPEPVTVSWNSGALTSGVHTFPAVLQSSGLYSLSSVVTVPSSSLGTQTYICNVNHKPSNTKVDKKVEPKSCDKTHTCPPCPAPEAAGGPSVFLFPPKPKDTLMISRTPEVTCVVVDVSHEDPEVKFNWYVDGVEVHNAKTKPREEQYNSTYRVVSVLTVLHQDWLNGKEYKCKVSNKALGAPIEKTISKAKGQPREPQVCTLPPSRDELTENQVSLTCLVKGFYPSDIAVEWESNGQPENNYKTTPPVLDSDGSFFLYSWLTVDKSRWQQGNVFSCSVMHEALHNHYTQKSLSLSPG light: DIQMTQSPSSVSASVGDRVTITCRASQGISSWLAWYQQKPGKAPKLLIYAASSLQSGVPSRFSGSGSGTDFTLTISSLQPEDFATYYCQQGVSFPRTFGGGTKVEIKRTVAAPSVFIFPPSDEQLKSGTASVVCLLNNFYPREAKVQWKVDNALQSGNSQESVTEQDSKDSTYSLSSTLTLSKADYEKHKVYACEVTHQGLSSPVTKSFNRGEC | 1.58 | 18 | 1.5 | 65 | 2.92 | 368 |  |  | 
2 | AB0188 (other, As AB0185) DIKMTQSPSSLSASVGDRVTITCKASQDIYNYLSWFQQKPGKAPKPLIYRANILVSGVPSRFSGSGSGQDYTLTISSLQPEDIATYYCLQFDAFPFTFGCGTKLEIKGGGGSGGGGSGGGGSGGGGSEVQLVESGGGVVQPGGSLRLSCAASGFTFNSFGMHWVRQAPGKCLEWVAFISSGSTSIYYANTVKGRFTISRDNSKNTLYLQMNSLRAEDTAVYYCARDGYPTGGAMDYWGQGTSVTVSSGSDKTHTCPPCPAPELLGGPSVFLFPPKPKDTLMISRTPEVTCVVVDVSHEDPEVKFNWYVDGVEVHNAKTKPREEQYNSTYRVVSVLTVLHQDWLNGKEYKCKVSNKALPAPIEKTISKAKGQPREPRVYTLPPCRDELTKNQVSLTCLVKGFYPSDIAVEWESNGQPENNYKTTPPVLVSDGSFTLYSKLTVDKSRWQQGNVFSCSVMHEALHNHYTQKSLSLSPG heavy: EVQLVESGGGLVKPGGSLRLSCAASGFTFSSYSMNWVRQAPGKGLEWVSSISSSSSYIYYADSVKGRFTISRDNAKNSLYLQMNSLRAEDTAVYYCARGAPIGAAAGWFDPWGQGTLVTVSSASTKGPSVFPLAPSSKSTSGGTAALGCLVKDYFPEPVTVSWNSGALTSGVHTFPAVLQSSGLYSLSSVVTVPSSSLGTQTYICNVNHKPSNTKVDKKVEPKSCDKTHTCPPCPAPELLGGPSVFLFPPKPKDTLMISRTPEVTCVVVDVSHEDPEVKFNWYVDGVEVHNAKTKPREEQYNSTYRVVSVLTVLHQDWLNGKEYKCKVSNKALPAPIEKTISKAKGQPREPQVCTLPPSRDELTENQVSLTCLVKGFYPSDIAVEWESNGQPENNYKTTPPVLDSDGSFFLYSWLTVDKSRWQQGNVFSCSVMHEALHNHYTQKSLSLSPG light: DIQMTQSPSSVSASVGDRVTITCRASQGISSWLAWYQQKPGKAPKLLIYAASSLQSGVPSRFSGSGSGTDFTLTISSLQPEDFATYYCQQGVSFPRTFGGGTKVEIKRTVAAPSVFIFPPSDEQLKSGTASVVCLLNNFYPREAKVQWKVDNALQSGNSQESVTEQDSKDSTYSLSSTLTLSKADYEKHKVYACEVTHQGLSSPVTKSFNRGEC |  |  |  |  |  |  | 1.58 | 0.000901 | 569000
3 | hcFAE-A49.CLL1-Merus (Duobody TriNKET) (bispecific antibody, V domains shown, Duobody format; also called Duobody TriNKET based on CLL1 antibody from Merus) VH 1: EVQLVQSGAEVKKPGASVKVSCKASGYTFTSYYMHWVRQAPGQGLEWMGIINPSGGSTSYAQKFQGRVTMTRDTSTSTVYMELSSLRSEDTAVYYCARGNYGDEFDYWGQGTLVTVSS VL 1: not shown VH 2: EVQLVESGGGLVKPGGSLRLSCAASGFTFSSYSMNWVRQAPGKGLEWVSSISSSSSYIYYADSVKGRFTISRDNAKNSLYLQMNSLRAEDTAVYYCARGAPMGAAAGWFDPWGQGTLVTVSS VL 2: DIQMTQSPSSVSASVGDRVTITCRASQGISSWLAWYQQKPGKAPKLLIYAASSLQSGVPSRFSGSGSGTDFTLTISSLQPEDFATYYCQQGVSFPRTFGGGTKVEIK | 1.13 | 15 | 2.79 | 59 | 4.45 | 369 |  |  | 

Further lines, results first:

Row | EC50 [1] [nM] | FOB (fold over background) [1] [fold] | EC50 [2] [nM] | FOB (fold over background) [2] [fold] | EC50 [3] [nM] | FOB (fold over background) [3] [fold] | Kd [4] [nM] | koff [4] [s⁻¹] | kon [4] [M⁻¹ s⁻¹] | Binder
4 | 0.63 | 14 | 1.19 | 59 | 2.35 | 357 |  |  |  | AB0237-Dead-2D (other, also called AB0237 NKG2D dead arm variant) QLQLQESGPGLVKPSETLSLTCTVSGFSLTNYGLHWIRQPPGKCLEWIGVIWSGGKTDYNPSLKSRVTISKDTSKNQFSLKLSSVQAADTAVYYCAKYDYDDSLDYWGQGTLVTVSSGGGGSGGGGSGGGGSGGGGSDIQMTQSPSSLSASVGDRVTITCHASQNINFWLSWYQQKPGKAPKLLIYEASNLHTGVPSRFSGSGSGTRFTLTISSLQPEDIATYYCQQSHSYPLTFGCGTKLEIKGSDKTHTCPPCPAPELLGGPSVFLFPPKPKDTLMISRTPEVTCVVVDVSHEDPEVKFNWYVDGVEVHNAKTKPREEQYNSTYRVVSVLTVLHQDWLNGKEYKCKVSNKALPAPIEKTISKAKGQPREPRVYTLPPCRDELTKNQVSLTCLVKGFYPSDIAVEWESNGQPENNYKTTPPVLVSDGSFTLYSKLTVDKSRWQQGNVFSCSVMHEALHNHYTQKSLSLSPG heavy: EVQLVESGGGLVKPGGSLRLSCAASGFTFSSYSMNWVRQAPGKGLEWVSSISSSSSYIYYADSVKGRFTISRDNAKNSLYLQMNSLRAEDTAVYYCARGAPIGAAAGWFDPWGQGTLVTVSSASTKGPSVFPLAPSSKSTSGGTAALGCLVKDYFPEPVTVSWNSGALTSGVHTFPAVLQSSGLYSLSSVVTVPSSSLGTQTYICNVNHKPSNTKVDKKVEPKSCDKTHTCPPCPAPELLGGPSVFLFPPKPKDTLMISRTPEVTCVVVDVSHEDPEVKFNWYVDGVEVHNAKTKPREEQYNSTYRVVSVLTVLHQDWLNGKEYKCKVSNKALPAPIEKTISKAKGQPREPQVCTLPPSRDELTENQVSLTCLVKGFYPSDIAVEWESNGQPENNYKTTPPVLDSDGSFFLYSWLTVDKSRWQQGNVFSCSVMHEALHNHYTQKSLSLSPG light: DIQMTQSPSTLSASVGDRVTITCRASNSISSWLAWYQQKPGKAPKLLIYEASSTKSGVPSRFSGSGSGTEFTLTISSLQPDDFATYYCQQYDDLPTFGGGTKVEIKRTVAAPSVFIFPPSDEQLKSGTASVVCLLNNFYPREAKVQWKVDNALQSGNSQESVTEQDSKDSTYSLSSTLTLSKADYEKHKVYACEVTHQGLSSPVTKSFNRGEC
5 | 0.55 | 10 | 1.33 | 31 | 2.87 | 318 |  |  |  | hcFAE-A49.h6E7 (Duobody TriNKET) (bispecific antibody, V domains shown, also called Duobody TriNKET based on h6E7 antibody from Genentech) VH 1: EVQLVQSGAEVKKPGASVKVSCKASGYSFTDYYMHWVRQAPGQGLEWIGRINPYNGAAFYSQNFKDRVTLTVDTSTSTAYLELSSLRSEDTAVYYCAIERGADLEGYAMDYWGQGTLVTVSS VL 1: DIQMTQSPSSLSASVGDRVTITCRASQSVSTSSYNYMHWYQQKPGKPPKLLIKYASNLESGVPSRFSGSGSGTDFTLTISSLQPEDFATYYCQHSWEIPLTFGQGTKVEIK VH 2: EVQLVESGGGLVKPGGSLRLSCAASGFTFSSYSMNWVRQAPGKGLEWVSSISSSSSYIYYADSVKGRFTISRDNAKNSLYLQMNSLRAEDTAVYYCARGAPMGAAAGWFDPWGQGTLVTVSS VL 2: DIQMTQSPSSVSASVGDRVTITCRASQGISSWLAWYQQKPGKAPKLLIYAASSLQSGVPSRFSGSGSGTDFTLTISSLQPEDFATYYCQQGVSFPRTFGGGTKVEIK
